Experiment: yeast display, Sf9 membrane polyspecificity reagent, FACS + sequencing; frameworks hold sequencing errors
How it was run: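 Genes from sorted yeast were amplified by colony PCR, read by MiSeq 2 × 250 sequencing and filtered on CDR length. These cells carried a synthetic nanobody library in Saccharomyces cerevisiae BJ5465 and were sorted by FACS into low and high (top ~1%) gates on anti-HA and streptavidin fluorescence. Polyreactivity is labelled according to the gate of origin.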

Sequence	polyreactivity (PSR sort gate)
QVQLVESGGGLVQAGGSLRLSCAASGYIFYANAMGWYRQPPGKERELVAAISWSGGSTYYADSVKGRFTISRDNAKNTVYLQMNSLKPEDTAVYYCAAAYYETPWDYYYWGQGTQVTVSS	low polyreactivity
QVQLVESVLGLVQAGGSLRLSCAASGSTILSNAIGWYRQAPGKERELVAAITSGGSTYYADSVKGGFTISRDNAKNTVYFQMNSLKPDDTAVYYCAVRYDRRRYDYWGQGTQVTVSS	low polyreactivity
QVQLVESGGGLVQAGGSLRLSCAASGITFGINAMGWYRQAPGKERELVAAITSGGSTYYADSVKGRFTISRDNAKNTVYLQMNSLKPEDTAVYDCAADYQYFVYCEYDYWGQGTQVTVSS	low polyreactivity
QVQLVESGGGLVQAGGSLRLSCAASGFIFVGNDMGWYRQAPGKERELVAAISSGGTTNYADSVKGRFTISRDNAKNTVYLQMNSLIPEDTAVYYCAADYDYRQGYDSVHLDYWGQGTQVTVSS	low polyreactivity
PVQLEESGGGLDQAGGSLRISCAASGRIFWAKAMGWYRQAPGKERELVAAINRRTGITYYADSVKGRFTISRDNAKNTVYFQMNSLKPEDTAVYYCAADWRTKCYDSLGQGTQVTVSS	high polyreactivity
QVQLVESGGGLVQAGGSLRLSCAASGFISGSNVMGWYRQAPGKERELVAAINWSGDNTYYADSVKGRFTISRDNAKNTVYLQMNSLKPEDTAVYYCNADVYSYATPEMDYWGQGTQVTVSS	low polyreactivity
QLQLVESGGGLVQAGASLRLSCAASGFIFKYNAMGWYRQAPCKERELVSAISRGTSTYYADSVKGRFTISRDNAKNTVYLQLNSLKPEDTAVYYCEATGRRPGQKYMGYDYWGQGTQVTVSS	high polyreactivity
QVQLVESAGGLVQAGGRLRLSCAASGFTFRYYAMGWYRQAPGKERELVATITPGGSTNYADSVKGRFTISRDNAKNTVYLEMNSLKPEDTAVYYCAASLYRVIAFGYWGQGTQVTVSS	high polyreactivity
QVQLVESGGGLVQAGGSLRFSCAASGSTISSNVMGWYRQAPGKERELVAAITKTGGRTYYADSVKGRFTISRDNAKNTVYLQMNSLKPEDTAFYYCAAKSKPRGTSSDYYYWGQGTQVTVSS	high polyreactivity
QVQLVESGGGLGQAGGSLRLSCAASGSTFQIYAMGWYREAPGKEWEFVAAITSSSSTNYADSVKGRFTISRDNAKNTVYLQMNSLKPEDTAVYYCAADVSWRSNWYDYWGQGTQVTVSS	low polyreactivity
QVQLVESGGGLVQAGGSLRLSCAASGSTFGWYAMGWYRQAPGKERELVAAITSGGGTYYADSVKGRFTISRDNAKNTVYLQMNSLKPEVTAVYYCAADFVYSGWAPYDFWVTSYDYWGQGTQVTVSS	low polyreactivity
QVQLVETGRGLVQAGGSLRLICAASGRTFGYYAMGWYRQAPGKEREFVAAISHSAGSTSYADSVKGRFTISRDNAKNTVYLQMNSLKPEDTAVFYFAAEICYLSVPRYDYWGQGTQVTVSS	low polyreactivity
QVQLVESGGGLVQAGGTLRLICAASGLTFGRYAMGWYRQAPGKERELVASISQRGGSTYYADSVKGRFTISRDNAKNTVYLQMNSLKPEDTAVYYCAARRYYRGEYDYWGQGTQVTVSS	low polyreactivity
QVQLVESGGGLVQAGGSLRLSCAASGFIFVRNTMGWYRQAPGKERELVASISRRGRTTYYADSVKGRFTISRDNAKNTVSLQMNSLKPEDTAVYYCNARYRVPKQGDYWGQGTQVTVSS	high polyreactivity
QVQLVESGGGLVQAGGSLRLSCASSGRTFLRYAMGWYRQAPGKERELVAAISSRGGTTHYADSVKGRFTISRDNAKNTVYLPMNSLKPEDTAVYYCAAKSFLPYLKFGYWGQGTQVTVSS	high polyreactivity
QVQLVESGGGLVQAGGSLRLSCAASGFIFKSYTMGWYRQAPGKERELVAAITWSGDSTYADSVKGRFTISRDNAKNTVYLQMNSLKPEDTAVYYCAKNYAYLYYSWGQGTQVTVSS	low polyreactivity
QVQLVESGGGLVQAGGSLRLICAASGIIFGGYDMGWYRQAPGKERELVAGIRSGGSTYYADSVKGRFTISRDNAKNTVYLQMNSLKPEDTAVYYCAKYVPIPYYSYLFGSYDYWGQGTQVTVSS	low polyreactivity
QVQLVESGGGLVQAGGSLRLSCAASGRIFSHYAMGWYRQAPGKERELVAAITSDGSTNYADSVKGRFTISRDNAKNTVYLQMNSLKPEHTAVYYCAKYVHIPYYYYLFGSYDYWGQGTQLTVSS	low polyreactivity
QVQLVESGGGLVQAGGSLRLSCAASGITFGYNTMGWYRQAPGKERELVAAISGSGGRTYYADSVKGRFTISRDNAKNTVFLQMNSLKPEDTAVYYCAARWPIWSSLYDYWGQGTQVTVSS	high polyreactivity
QVQLVESGGGLVQAGGSLRLSCAASGSTFYTYVMGGYRQAPGKERELVAAITRSGGITYYADSVKGRFTISRDNAKYTVYLQMNSLKPEDTAVYYCAKDDQTASGFDYWGQGTQVTVSS	low polyreactivity
QVQLVESGGGLVQAGGSLRLSCAASGYTFYRYTMGWYRQAPGKEREVVAAINSGGSTNYADSLKGRFTISRDNAKNTVYLQMNSLKPEDTAVYYCARRYQTWPRWYDYWGQGTQVTVSS	high polyreactivity
QVQLVESGGGLVQAGGSLRLSCAASGSTSTWYAMGWYRQAPGKERELVATITGSGDTTYYADSVKGRFTISRDNAKNTVYLQMNSLKPEDTAVYYCAADYDPDDDTYDYWGQGTQVTVSS	low polyreactivity

Sequence	polyreactivity (PSR sort gate)
QVQLVESGGGLVQAGGSLSLSCAASGSTFLKYTMGWYRQAPWKERELVAAISKSGGSTYYADSVKGRFTISRDNAKNTVYLQMNSLKPEDTAVYYCAKGRYWVYSYGYGYWGQGTQVTVSS	high polyreactivity
QVQLVESGGGLVQAGGSLRLSCAASGSTYYNAMGWYRQAPGKERELVAAIRFRSGSTYYADSVKGRFTISRDNAKNTVYLQMNSLKPEDTAVYYCNKVPYRGYRRYGYWGQGTQVTVSS	high polyreactivity
QVQLVESGGGLVQAGGSLRLSCAASGSIFTSYAMVWYRQAPGKERELVAAITSGGSTYYAHSVKGRFTISRDNAKKTVYLLMNSLKPEDTAVYYCAALQVRTSKLHMGYWGQGTQVTVSS	low polyreactivity
QVQLVESGGCLVQAGGSLRLSCAASGSTFTTNAMGWYIQAPGKERELVAAISWSGTTTYYADSVKGRFTISRDNAKNTGYLQMNSLKPEDTAVYYCAAQVVSGTVAYLDFGYWGQGTQVTVSS	low polyreactivity
QVQLVESGRGLVQAGGSLRLSCAASGIFTRYAMGWYRQAPGKERELVAAISRGGGSTYYADSVKGSFTISRDNAKNTVYLQMNSLKPEDTAVYYCAADNSPRPYDYWGQGTQVTVSS	high polyreactivity
QVQLVESGGGLVQAGGSLRFSCAASGTFDYYDMGWYRQAPGKEWELVAGITSGGSTDYADSEKGRFTISRDNAKNTVYLQMNSLKPEDTAVYYCAADPFRIHTYDYWGQGTQVTVSS	low polyreactivity
QVQLVESGGGLVQAGGSLRLSCAASGRIFGYNAMGWYRQAPGKERELVAAITNGGSTNYADSVKGRFTISRDNAKNTVYLQMNSLKPEDTAVYYCVAYVGSTYSAPEYYWGQGTQVTVSS	low polyreactivity
QVQLVESGGGLVQAGGSLRLSCAASGSIFKYYTMGWYRQAPGKERELVAAISGSGSRTYYADSVKGRFTISRDNAKNTVYLQMNSLKPEDTAVYYCAAEVKDSFVNAKSYYWGQGTQVTVSS	high polyreactivity
QVQLVESGGGLDQAGGSLRLSCAASGSTLSGNAMGWYRHAPGKERELVAAITSSGGRTYYADSVKGRFTISRDNAKNTVYLQMNSLKPEDTAVYYCAARSRLGRYTYDYCGQGTQVTVSS	high polyreactivity
QVQLVESGGGLVQAGGSLRLSCAASGRTFYPYVMRWYRQAPGKERELVAAITNRGGSTYYADSVKGRFTISRDNAKKTVYLQMNSLKPEDTAVYYCAKRQVGVGHYDHWGQGTQVTVSS	low polyreactivity
QVQLVESGGGLVQAGGSLRLSCAASGRTFGLYAMGWYRQAPGKERELVAAIDQSTGSTYYADSVKGRFTISRDNAKNTVYLQMNRLKPEDTAVYYCAAEEASTVRYYWYDYWGQGTQVTVSS	high polyreactivity
QVKLVESGGGLVQAGGSLRLSCAASGITFGYNAMGWDRQAPGKERELVAAITGGSTYYADSVKGRFTISRDNAKNTFYLQMNSLKPEDSAVYYCATDPRRFWVIYYYWGQGTQVTVSS	low polyreactivity
QVQLVESGGGLVQAGGSLRLSCAASGNIFHFYAMGWYRQAPGKERELVATISWRGDGTYYADSVKGRFTISRDNAKYTVYLQMNSLKPEDTAVYYCAARGVWPEYDYWGQGTQVTVSS	low polyreactivity
QVQLVESGGGLVQAGGSLRLSCAASGRIFYSYAMGWYRQAPGKERELVASITSSGGSTYADSVKGRFTISRDNAKNTVYLQMNSLKPEDTAVYYFDYWGQGTQVTVSS	low polyreactivity
QVQLVESGGGLVQAGGSLRLICAASGFIFKWNAMGWYRQAPGKERELVAAITSGGGTYYADSVKGRFTISRDNAKNTVYLQMNSLKPEDTAVYYCAALGRYWPARRFDYWGQGTQVTVSS	high polyreactivity
QDQLVESGGGLVQAGGSLRLSCAASGSIFWSNAMGWYRQAPGKERELVASISSSGSTYYADSVKGRFTISRDNAKNTVYLQMNSLKPEDTGVYYCAAGSAYYSQRYFAYGYDSWGQGTQVTVSS	low polyreactivity
QVQLVESGGGLVQAGGSLRLSCAASGFIFVDYDMVWYRQAPGKERELVAAISARGGSTNYADSVKGRFTISRDNAKNTVYLQMNSLKPEDTAVYYCAADTPVWSGYWYDYWGQGTQVTVSS	low polyreactivity
QVQLVESGGGLVQAGGSLRLSCAASGSIFRPYAMGWYRQAPGKERELVAAISWRSGRTYYADSVKGRFTISRDNAKNTVYLQMNSLKPEDTAVYYCAADLASYAYRYDYWGQGTQVTVSS	high polyreactivity
QVQLVESGGGLVQAGGSLSLSCADSAGTFKTNAKGWYRQAPGKERELVAAITGSGTSTYYADSVKGRFTSSRDNAKNTVYFQMNSLKPEDTAVYYCAADKLYQPGIGDDYWGQGTQVTLSS	low polyreactivity
QVQLVESGRGLVQAGGSLRLSCAASGFTFYRYAMGWYRQAPGKERELVAAISWSGGSTYYADSVKGRFTISRDNAKNTVYLQMNSLKPEDTAVYYCAANRRFVGTGSTYYYWGQGTHVTVSS	high polyreactivity
QVQLVESGGGFVQAGGSLRLSCAASGRTFWNYAMGWYRPAPGKERELVAVIRFSDGSTYYADSVKGRFTISRDHAKNTVYLQMNSLKPEDTAVYYCAAKGPRRWGSGFDYWGQGTQVTVSS	low polyreactivity

Reference: the nanobody polyreactivity screen of Harvey et al. (2022)
